Here are results for four molecules from article PMC8065591 (2021).

The assay deals with somatostatin receptor type 2 (SST2) (Homo sapiens, UniProt P30874). Briefly: saturation binding of radioligand on HEK-SST2 cell membranes.

Bridges are numbered along the chain shown (N, C = ends). [ ]: non-standard residue; d: D form. Aph(Hor) = 4-amino-phenylalanine(L-hydroorotic acid); dPhe(4-NHCONH2) = NC(=O)Nc1ccc(C[C@@H](N)C(=O)O)cc1; Cpa = not defined here; Ahx = NCCCCCC(=O)O

Chain of somatostatin receptor type 2 (SST2) (P30874 whole entry): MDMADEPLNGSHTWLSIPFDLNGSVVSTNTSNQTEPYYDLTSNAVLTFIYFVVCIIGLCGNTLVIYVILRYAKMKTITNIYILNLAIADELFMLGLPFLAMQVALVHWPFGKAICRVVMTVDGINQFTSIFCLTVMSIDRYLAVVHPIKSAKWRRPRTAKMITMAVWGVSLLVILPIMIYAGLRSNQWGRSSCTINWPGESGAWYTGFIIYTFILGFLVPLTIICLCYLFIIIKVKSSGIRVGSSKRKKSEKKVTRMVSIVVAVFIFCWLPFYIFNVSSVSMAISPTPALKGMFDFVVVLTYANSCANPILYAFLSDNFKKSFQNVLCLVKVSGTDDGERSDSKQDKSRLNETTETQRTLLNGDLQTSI

By Kd is commonly meant the concentration at which binding is half-saturated. As for {(99mTc)Tc‑HYNIC/EDDA-Ahx-Cpa}-[dC]Y[dW]KTC[dY]-NH2 (disulfide 1-6 (inferred); reading uncertain; also: 99mTc complex, EDDA coligand) [[99mTc]Tc-HYNIC-Ahx-SS01], the affinity, expressed as Kd, was 1600 pM.

B1: [99mTc]Tc-HYNIC-Ahx-JR11 (peptide)
chain: {(99mTc)Tc‑HYNIC/EDDA-Ahx-Cpa}-[dC][Aph(Hor)][dPhe(4-NHCONH2)]KTC[dY]-NH2
modifications: disulfide 1-6 (inferred); reading uncertain; also: 99mTc complex, EDDA coligand, printed as Cpa-c(dCys-Aph(Hor)-dAph(Cbm)-Lys-Thr-Cys)-dTyr-NH2
Molecule B1 returned a dissociation constant Kd of 850 pM.

Molecule {(99mTc)Tc‑N4-Cpa}-[dC]Y[dW]KTC[dY]-NH2 (disulfide 1-6 (inferred); reading uncertain; also: 99mTc complex) [[99mTc]Tc-N4-SS01] gave a Kd of 920 pM.

B2: [99mTc]Tc-N4-JR11 (peptide)
chain: {(99mTc)Tc‑N4-Cpa}-[dC][Aph(Hor)][dPhe(4-NHCONH2)]KTC[dY]-NH2
modifications: disulfide 1-6 (inferred); reading uncertain; also: 99mTc complex, printed as Cpa-c(dCys-Aph(Hor)-dAph(Cbm)-Lys-Thr-Cys)-dTyr-NH2
Regarding B2, the affinity, expressed as Kd, was 600 pM.
